This note sets out measurements from patent US10942183B2, “Methods of detecting progesterone receptor and of detecting an expression level” (REGENTS OF THE UNIVERSITY OF MINNESOTA, priority 2017, dated 2021).

This test relates to T47D cells. Briefly: Mammosphere formation in T47D cells. Format: cell-based, human. The note with it: T47D cells, EGF 20 ng/ml, 14 days. The method, then:
Primary Mammospheres: Adherent cells were washed with PBS and dissociated enzymatically in 0.25% trypsin-EDTA (Invitrogen Corporation, Carlsbad, Calif.). Cells were sieved through a 40-μm sieve (BD FALCON, BD Biosciences, Bedford, Mass.) and analyzed microscopically for single-cellularity. Single cells were plated in ultra-low attachment plates (Corning, Inc., Corning, N.Y.) and cultured in a humid incubator. Cells were grown in a serum-free mammary epithelial basal medium (MEBM; Lonza Group, Basel, Switzerland) containing 1% B27 Supplement (Invitrogen Corporation, Carlsbad, Calif.), 1% penicillin-streptomycin (Invitrogen Corporation, Carlsbad, Calif.), 5 μg/ml insulin (Invitrogen Corporation, Carlsbad, Calif.), 20 ng/ml EGF (Sigma-Aldrich, St. Louis, Mo.), 1 ng/ml hydrocortisone (Sigma-Aldrich, St. Louis, Mo.), and 100 μM β-mercaptoethanol. […] Mammosphere Forming Efficiency (MFE) % was calculated by the number of mammospheres per well/number of cells seeded per well.
Secondary Mammospheres: Primary mammospheres were collected by centrifugation (5 min, 1000 rpm), and dissociated enzymatically in 0.25% typsin-EDTA. Cells were sieved through a 40-μm tip strainer (Bel-Art SP Scienceware, South Wayne, N.J.) and analyzed microscopically for single-cellularity. […] Mammosphere Forming Efficiency (MFE) % was calculated by the number of mammospheres per well/number of cells seeded per well. […]

B1: EGF: growth factor in mammosphere culture media, 20 ng/ml (protein, UniProt P01133 23-1207, looked up)
Pro-epidermal growth factor: PQHWSCPEGTLAGNGNSTCVGPAPFLIFSHGNSIFRIDTEGTNYEQLVVDAGVSVIMDFHYNEKRIYWVDLERQLLQRVFLNGSRQERVCNIEKNVSGMAINWINEEVIWSNQQEGIITVTDMKGNNSHILLSALKYPANVAVDPVERFIFWSSEVAGSLYRADLDGVGVKALLETSEKITAVSLDVLDKRLFWIQYNREGSNSLICSCDYDGGSVHISKHPTQHNLFAMSLFGDRIFYSTWKMKTIWIANKHTGKDMVRINLHSSFVPLGELKVVHPLAQPKAEDDTWEPEQKLCKLRKGNCSSTVCGQDLQSHLCMCAEGYALSRDRKYCEDVNECAFWNHGCTLGCKNTPGSYYCTCPVGFVLLPDGKRCHQLVSCPRNVSECSHDCVLTSEGPLCFCPEGSVLERDGKTCSGCSSPDNGGCSQLCVPLSPVSWECDCFPGYDLQLDEKSCAASGPQPFLLFANSQDIRHMHFDGTDYGTLLSQQMGMVYALDHDPVENKIYFAHTALKWIERANMDGSQRERLIEEGVDVPEGLAVDWIGRRFYWTDRGKSLIGRSDLNGKRSKIITKENISQPRGIAVHPMAKRLFWTDTGINPRIESSSLQGLGRLVIASSDLIWPSGITIDFLTDKLYWCDAKQSVIEMANLDGSKRRRLTQNDVGHPFAVAVFEDYVWFSDWAMPSVMRVNKRTGKDRVRLQGSMLKPSSLVVVHPLAKPGADPCLYQNGGCEHICKKRLGTAWCSCREGFMKASDGKTCLALDGHQLLAGGEVDLKNQVTPLDILSKTRVSEDNITESQHMLVAEIMVSDQDDCAPVGCSMYARCISEGEDATCQCLKGFAGDGKLCSDIDECEMGVPVCPPASSKCINTEGGYVCRCSEGYQGDGIHCLDIDECQLGEHSCGENASCTNTEGGYTCMCAGRLSEPGLICPDSTPPPHLREDDHHYSVRNSDSECPLSHDGYCLHDGVCMYIEALDKYACNCVVGYIGERCQYRDLKWWELRHAGHGQQQKVIVVAVCVVVLVMLLLLSLWGAHYYRTQKLLSKNPKNPYEESSRDVRSRRPADTEDGMSSCPQPWFVVIKEHQDLKNGGQPVAGEDGQAADGSMQPTSWRQEPQLCGMGTEQGCWIPVSSDKGSCPQVMERSFHMPSYGTQTLEGGVEKPHSLLSANPLWQQRALDPPHQMELTQ
modifications: Pro-epidermal growth factor
notes: growth factor in mammosphere culture media, 20 ng/ml
In the case of B1, the “mammosphere formation on removal and add-back of EGF” value is given as “clear requirement for growth factor signaling”.
